The test has as its target Human-Rat chimeric FcεRI α-chain protein (chimeric FcεRI on the cell membrane of HuRa clones) (human (extracellular domain) and rat (transmembrane and intracellular domains); rat) (UniProt P13386). In words: cell-based or functional assay.

Human-Rat chimeric FcεRI α-chain protein (chimeric FcεRI on the cell membrane of HuRa clones) (human (extracellular domain) and rat (transmembrane and intracellular domains); rat), sequence (chain, as listed by the source mutant, form in doubt, chain 1 of 3): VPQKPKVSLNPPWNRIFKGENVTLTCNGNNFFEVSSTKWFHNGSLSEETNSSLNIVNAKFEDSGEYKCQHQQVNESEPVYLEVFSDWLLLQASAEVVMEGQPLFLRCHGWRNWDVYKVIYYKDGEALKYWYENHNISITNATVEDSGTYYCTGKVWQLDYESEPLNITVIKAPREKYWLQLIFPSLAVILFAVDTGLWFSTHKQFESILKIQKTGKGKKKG
Human-Rat chimeric FcεRI α-chain protein (chimeric FcεRI on the cell membrane of HuRa clones) (human (extracellular domain) and rat (transmembrane and intracellular domains); rat), sequence (P13386 whole entry, stated change not applied, form in doubt, chain 2 of 3, the tested form may be a part): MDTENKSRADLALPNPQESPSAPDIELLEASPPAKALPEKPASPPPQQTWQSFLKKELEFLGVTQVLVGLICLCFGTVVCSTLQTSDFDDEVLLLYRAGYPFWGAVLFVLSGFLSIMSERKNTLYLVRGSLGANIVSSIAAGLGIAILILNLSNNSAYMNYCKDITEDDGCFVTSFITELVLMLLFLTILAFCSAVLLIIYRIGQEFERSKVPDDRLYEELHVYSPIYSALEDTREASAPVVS
Human-Rat chimeric FcεRI α-chain protein (chimeric FcεRI on the cell membrane of HuRa clones) (human (extracellular domain) and rat (transmembrane and intracellular domains); rat), sequence (P20411 19-86, stated change not applied, form in doubt, chain 3 of 3): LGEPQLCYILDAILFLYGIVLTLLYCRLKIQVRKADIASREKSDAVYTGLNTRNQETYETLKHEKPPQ

Turning to “purified human IgE (ab65866, Abcam) (from UniProt P01854 1-428) (antibody)”, the luciferase expression level (NF-AT reporter), IgE-sensitized (aIgE) against not sensitized (no IgE) cells, stimulated with anti-human IgE antibody; seven HuRa clones was 100 times.

(Values after patent US20240309389A1, “Chimeric FCeRI a-Chain Gene, Chimeric FCeRI a-Chain Protein, Cells, Analysis Kit and Analysis Method” (TEIKYO HEISEI UNIVERSITY, priority 2021, published 2024).)
